Reference: patent EP4471049A1 (Zealand Pharma A/S, priority 2023, dated 2024)
*1 amine or outer side, *2 acyl side, *3 side chain or, on linkers, in order; H or OH if unused. Where a SMILES comes first, the peptide text is derived from it. Bridges are numbered along the chain shown (N, C = ends). Where no end group is shown, it is not given here. [ ]: non-standard residue; d: D form. 4‑Aminomethyl‑phenylacetyl = 4-aminomethyl-phenylacetyl unit, its amine closes the lactam, O=C(Cc1ccc(CN[*:1])cc1)[*:2]; 2Nal = N[C@@H](Cc1ccc2ccccc2c1)C(=O)O; AEF = NCCOc1ccc(C[C@H](N)C(=O)O)cc1; 3Pal = N[C@@H](Cc1cccnc1)C(=O)O; αMeL = CC(C)C[C@](C)(N)C(=O)O; CH2COCH2 = O=C(C[*:1])C[*:2]; 3Amb = NCc1cccc(C(=O)O)c1; NMeS = CN[C@@H](CO)C(=O)O; Dab = NCC[C@H](N)C(=O)O

T1: human IL-23R endogenously expressed on DB cells (human, UniProt Q5VWK5 24-629)
T1 sequence (looked up): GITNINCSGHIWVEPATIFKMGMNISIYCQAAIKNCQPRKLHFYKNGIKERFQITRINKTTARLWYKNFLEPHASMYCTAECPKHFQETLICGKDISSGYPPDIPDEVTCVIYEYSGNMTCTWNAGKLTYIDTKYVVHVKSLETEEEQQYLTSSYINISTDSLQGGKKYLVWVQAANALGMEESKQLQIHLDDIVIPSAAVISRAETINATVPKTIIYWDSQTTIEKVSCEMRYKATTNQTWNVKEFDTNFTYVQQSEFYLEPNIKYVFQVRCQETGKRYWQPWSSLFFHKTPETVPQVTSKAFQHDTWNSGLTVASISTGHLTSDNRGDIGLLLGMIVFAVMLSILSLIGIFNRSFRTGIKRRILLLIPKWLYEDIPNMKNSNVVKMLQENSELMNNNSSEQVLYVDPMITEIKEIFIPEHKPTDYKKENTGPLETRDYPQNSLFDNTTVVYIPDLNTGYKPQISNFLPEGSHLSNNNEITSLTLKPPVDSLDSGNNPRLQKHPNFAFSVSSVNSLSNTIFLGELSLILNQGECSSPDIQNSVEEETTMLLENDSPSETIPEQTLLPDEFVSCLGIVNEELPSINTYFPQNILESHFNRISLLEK

T2: Nluc-IL23R fusion protein (human, UniProt Q5VWK5 22-629)
T2 construct: range 22-629; expressed with a secretion signal in HEK293 cells; used as crude membrane preparation; also called hIL-23R; human IL-23R; not shown: Nanoluc protein from the expression plasmid N1371 (Promega), N-terminal of IL-23R
T2 sequence (looked up): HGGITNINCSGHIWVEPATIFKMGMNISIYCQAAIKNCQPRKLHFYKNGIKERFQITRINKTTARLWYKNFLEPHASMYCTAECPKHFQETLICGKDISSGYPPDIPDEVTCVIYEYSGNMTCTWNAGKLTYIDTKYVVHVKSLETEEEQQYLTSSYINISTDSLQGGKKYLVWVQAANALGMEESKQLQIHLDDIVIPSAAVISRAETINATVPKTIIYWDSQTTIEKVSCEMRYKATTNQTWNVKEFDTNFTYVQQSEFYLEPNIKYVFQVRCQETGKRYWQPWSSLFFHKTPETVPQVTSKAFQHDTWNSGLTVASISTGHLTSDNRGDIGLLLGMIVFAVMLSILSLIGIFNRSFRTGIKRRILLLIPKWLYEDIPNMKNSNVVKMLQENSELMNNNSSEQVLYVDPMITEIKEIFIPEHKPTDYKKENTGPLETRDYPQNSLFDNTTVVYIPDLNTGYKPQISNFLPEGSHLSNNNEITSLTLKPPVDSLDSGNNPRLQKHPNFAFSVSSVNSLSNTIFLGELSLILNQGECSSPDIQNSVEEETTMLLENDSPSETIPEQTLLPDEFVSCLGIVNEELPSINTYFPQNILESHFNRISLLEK


Tests used:
[1] = Peptide stability in simulated gastric fluid (SGF); format: in vitro ADME; conditions: 37 °C, pH 1.2, porcine pepsin 3.2 g/L, 10 µM
Protocol: SGF was prepared by dissolving sodium chloride (0.2 g) in 50 mL of water. A volume of 0.7 mL of 10 M HCl was added to adjust the pH of the solution to 1.2 and the volume made up to 100 mL with water. […] SIF was prepared by dissolving monobasic potassium phosphate (0.68 g) in 50 mL of water and adjusting the pH to 6.8 with 1 M NaOH. The volume was subsequently made up to 100 mL with water. 200 mg porcine pancreatin (P1625, Sigma Aldrich) was gently dissolved into 20 mL preheated (37 °C) solution (10 g/L) immediately prior to the incubation.
The incubation was performed at 37 °C with gentle shaking. […] After the last timepoint, the sampling plate was mixed for 10 min on a shaking table and centrifuged 10 min at 2200 g. 70 µL resulting supernatant was diluted with 150 µL water, mixed and centrifugated before analysis by liquid chromatography high resolution mass spectrometry. […] Percent remaining at each timepoint was calculated relative to timepoint zero based on absolute peak areas.
Compounds with a SGF stability (after 4 h) above 70% are considered highly SGF stable. […] Table 3-4: SGF data

[2] = target: T1, human IL-23R endogenously expressed on …; assay: cell-based or functional assay
[3] = target: T2, Nluc-IL23R fusion protein; assay: BRET competition vs TAMRA-labelled peptide, Nluc-IL23R membranes

SGF (% remaining 1 h) [1]	SGF (% remaining 4 h) [1]	hIL-23 (pSTAT3) antagonist % inhibition [2]	hIL-23 (pSTAT3) antagonist IC50 [2]	% displacement (hIL-23R binding) [3]	IC50 [3]	Molecule
1%	0%					CC(C)C[C@@H]1NC(=O)[C@H](Cc2c[nH]c3ccccc23)NC(=O)[C@H](Cc2c[nH]c3ccccc23)NC(=O)[C@@H]2CSCC(=O)CSC[C@H](NC(=O)[C@H](CO)NC(=O)[C@@H](NC(=O)[C@@H](N)CC(=O)O)CCC(=O)NCCCC[C@@H](C(=O)N[C@@H](CCCNC(=N)N)C(N)=O)NC1=O)C(=O)N[C@@H](Cc1c[nH]c3ccccc13)C(=O)N[C@@H](CCC(N)=O)C(=O)N2 [Ref 4, H-DE(1c)SC(2a)WQC(2a)WWLK(1c)R-[NH2], reference compound] (HELM PEPTIDE1{D.E.S.C.W.Q.C.W.W.L.K.R.[am]}|CHEM1{[O=C(C[*:1])C[*:2]]}$PEPTIDE1,PEPTIDE1,2:R3-11:R3|PEPTIDE1,CHEM1,4:R3-1:R1|PEPTIDE1,CHEM1,7:R3-1:R2$$$V2.0)
0%	0%					CC(=O)N[C@@H](CC(=O)O)C(=O)N[C@H]1CCC(=O)NCCCC[C@@H](C(=O)N[C@@H](CCCNC(=N)N)C(N)=O)NC(=O)[C@H](CC(C)C)NC(=O)[C@H](Cc2ccc3ccccc3c2)NC(=O)[C@H](Cc2c[nH]c3ccccc23)NC(=O)[C@@H]2CSCC(=O)CSC[C@H](NC(=O)[C@H](CO)NC1=O)C(=O)N[C@@H](Cc1c[nH]c3ccccc13)C(=O)N[C@@H](CCC(N)=O)C(=O)N2 [Ref 17, [Ac]-DE(1c)SC(2a)WQC(2a)W[2-Nal]LK(1c)R-[NH2], reference compound]
2%	1%					CC(C)C[C@@H]1NC(=O)[C@H](Cc2ccc3ccccc3c2)NC(=O)[C@H](Cc2c[nH]c3ccccc23)NC(=O)[C@@H]2CSCC(=O)CSC[C@H](NC(=O)[C@H](CO)NC(=O)c3cccc(c3)CNC(=O)CC[C@@H](C(=O)N[C@@H](CCCNC(=N)N)C(N)=O)NC1=O)C(=O)N[C@@H](Cc1c[nH]c3ccccc13)C(=O)N[C@@H](CCC(N)=O)C(=O)N2 [Ref 37, [(3-Aminomethyl)benzoyl](1c)*SC(2a)WQC(2a)W[2-Nal]LE(1c)R-[NH2], reference compound] ([3Amb]SCWQCW[2Nal]LER-NH2; linker 3-6 via CH2COCH2; lactam N-10)
		101%	3.4 nM	96%	35 pM	[4‑Aminomethyl‑phenylacetyl]SEWA[Dab][AEF][2Nal][αMeL]E[Dab][3Pal]-NHMe (lactam N-10, 3-6; SMILES CNC(=O)[C@H](Cc1cccnc1)NC(=O)[C@H](CCN)NC(=O)[C@@H]1CCC(=O)NCc2ccc(cc2)CC(=O)N[C@@H](CO)C(=O)N[C@H]2CCC(=O)NCC[C@H](NC(=O)[C@H](C)NC(=O)[C@H](Cc3c[nH]c4ccccc34)NC2=O)C(=O)N[C@@H](Cc2ccc(OCCN)cc2)C(=O)N[C@@H](Cc2ccc3ccccc3c2)C(=O)N[C@@](C)(CC(C)C)C(=O)N1) [Compound 22]
		99%	5.2 nM	97%	120 pM	[4‑Aminomethyl‑phenylacetyl]SEWF[Dab][AEF][2Nal][αMeL]E[Dab][3Pal]-NHMe (lactam N-10, 3-6; SMILES CNC(=O)[C@H](Cc1cccnc1)NC(=O)[C@H](CCN)NC(=O)[C@@H]1CCC(=O)NCc2ccc(cc2)CC(=O)N[C@@H](CO)C(=O)N[C@H]2CCC(=O)NCC[C@H](NC(=O)[C@H](Cc3ccccc3)NC(=O)[C@H](Cc3c[nH]c4ccccc34)NC2=O)C(=O)N[C@@H](Cc2ccc(OCCN)cc2)C(=O)N[C@@H](Cc2ccc3ccccc3c2)C(=O)N[C@@](C)(CC(C)C)C(=O)N1) [Compound 23]
				96%		[4‑Aminomethyl‑phenylacetyl][NMeS]EWQ[Dab][AEF][2Nal][αMeL]E[Dab][3Pal]-NHMe (lactam (positions not given here); lactam 3-6; not fully specified (bridges)) [Compound 18]
		100%	0.13 nM	100%		[3Amb]SCWQC[AEF][2Nal][αMeL]ER[3Pal]-NH2 (lactam N-10; bridge 3-6; not fully specified (bridges); printed as [(3-Aminomethyl)benzoyl](1c)*SC(2a)WQC(2a)[Y(2-aminoethoxy)][2-Nal][2-Me-Leu]E(1c)R[3-(3-Pyridyl)-Ala]-[NH2]) [Ref 78]
		102%	0.063 nM	95%		[4‑Aminomethyl‑phenylacetyl]FEWQ[Dab][AEF][2Nal][αMeL]E[Dab][3Pal]-NHMe (lactam N-10, 3-6; SMILES CNC(=O)[C@H](Cc1cccnc1)NC(=O)[C@H](CCN)NC(=O)[C@@H]1CCC(=O)NCc2ccc(cc2)CC(=O)N[C@@H](Cc2ccccc2)C(=O)N[C@H]2CCC(=O)NCC[C@H](NC(=O)[C@H](CCC(N)=O)NC(=O)[C@H](Cc3c[nH]c4ccccc34)NC2=O)C(=O)N[C@@H](Cc2ccc(OCCN)cc2)C(=O)N[C@@H](Cc2ccc3ccccc3c2)C(=O)N[C@@](C)(CC(C)C)C(=O)N1) [Compound 21]
		100%	3.5 nM	104%		[4‑Aminomethyl‑phenylacetyl]SEWQ[Dab][AEF][2Nal][αMeL]E[Dab]H[3Pal]-NH2 (lactam (positions not given here); lactam 3-6; not fully specified (bridges)) [Compound 12]
		101%	0.054 nM	94%		[4‑Aminomethyl‑phenylacetyl]SCWQC[AEF][2Nal][αMeL]E[Dab][3Pal]-NH2 (lactam N-10; bridge 3-6; not fully specified (bridges); printed as [4-Aminomethyl-phenylacetyl](1c)*SC(2a)WQC(2a)[Y(2-aminoethoxy)][2-Nal][2-Me-Leu]E(1c)[Dab][3-(3-Pyridyl)-Ala]-[NH2]) [Ref 120]
		100%	0.031 nM	97%		Ac-KTCWQC[AEF][2Nal][αMeL]E[Dab][3Pal]-NH2 (lactam 1-10; bridge 3-6; not fully specified (bridges); printed as [Ac]-K(1c)TC(2a)WQC(2a)[Y(2-aminoethoxy)][2-Nal][2-Me-Leu]E(1c)[Dab][3-(3-Pyridyl)-Ala]-[NH2]) [Ref 155]
		97%	11 nM	103%		[4‑Aminomethyl‑phenylacetyl]SCWQC[AEF][2Nal][αMeL]E[Dab]-NH2 (lactam N-10; bridge 3-6; not fully specified (bridges); printed as [4-Aminomethyl-phenylacetyl](1c)*SC(2a)WQC(2a)[Y(2-aminoethoxy)][2-Nal][2-Me-Leu]E(1c)[Dab]-[NH2]) [Ref 82]
